Tested on: K4 kissing-loop RNA reporter
Assay: apparent KD of K4 kissing-loop reporter; higher = weaker reporter binding
Conditions: Eterna round: R107
Method: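 RNA-MaP round R107: designed RNA switches with theophylline, tryptophan, arginine or FMN aptamers are transcribed on-chip within common flanks. They are titrated with a labelled K4 kissing-loop RNA reporter in RNA-MaP buffer (100 mM Tris pH 7.5, 80 mM KCl, 4 mM MgCl2), without ligand or with the indicated ligand. Median apparent KD per design.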

[1] = input ligand: theophylline 20 uM
[2] = input ligand: tryptophan 2.4 mM
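Also: bound reporter read as fluorescence of individual clusters on recovered sequencing chips by microscopy, with normalized cluster intensities fitted with a binding model.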

Sequence | apparent KD of K4 kissing-loop reporter (input ligand: FMN 200 uM) [nM] | apparent KD of K4 kissing-loop reporter (input ligand: arginine 13.2 mM) [nM] | apparent KD of K4 kissing-loop reporter (input ligand: none) [nM] | apparent KD of K4 kissing-loop reporter [1] [nM] | apparent KD of K4 kissing-loop reporter [2] [nM]
UUUUAAAUAUCUGAUACCAGAGCGAAUAUAUGUAGUGAUGUUAUAUACAAAAUAAAUAAGCUCCCUUGGCAGCAGUAUUAAUUUU [Astros-ExyTheB#?#ED14.66] | 1020 | 829 | 919 | 961 | 968
AAAUAGAUCAGUCACCCAGUGAUGUUGGAAGGAGCGUGCGAAAGCACAGGUAGGUCGCCAGAAUAAAAGUGGCUGAUCAAAAUAA | 512 | 358 | 519 | 513 | 366
GUAGGAUGAGGAGGAGGAUGAAAUACUGAAGGAGCGCAGAGAAAUGCAGGUAGGUCGCGGUAAGGAAGUAUAGUGAUGUUAUAUA [#07 K4 Arginine A Same State] | 414 | 367 | 664 | 755 | 449
AGACUACCACACUGUCAAUAGACAGUGAAUUAGGAUAUGCUGAUAAGCAGAAGGAGUGAUGUUCCCAGGUAGUCAAUAAAAUAAU [FmnAX 13 U30+C66] | 169 | 124 | 167 | 202 | 177
CAGAACUUGUAUAUAGGGUAUAUAAGAGAUACCAGUCAAAUUAAAGACCCUUGGCAGCUCAGGCGAGUGAUGUUCGCAGGCUAAC [Exclusion Theophylline A GF 17] | 112 | 111 | 113 | 133 | 91.1
UAUUAAUUGUCAGGAUAUCGUAAUCGAGUGAUGUUCGAAUAUCGACGAUAGUCGAUAUUAUUUAUACGAGAAGGGACAUUAUUUA [JR_SSFMNB_Sub004] | 366 | 298 | 417 | 321 | 332
CCUCACGUAGGACUAGUGAUGUUAGACUACCGAGGACCGGUACGGCCGCCACUCGUCGUACAAGAUAACCAUCUGCCAGUAUACA | 122 | 103 | 117 | 107 | 168
GGGUCUGUCGGAAGGAGCGCGCUAUGGAGUGAUGUUCCAUGACCGUACAGCUUACGGUCAGCGCAGGUAGGUCGCCGAUAGCGUU [Geordiar] | 153 | 116 | 142 | 151 | 120
AGUAAUGAGUGAUGUUCAAGUAGUAAGGAUACCAGUAAUUCAAAAUGCCCUUGGCAGCUUAGCGCUACCAAUAGAUGGGUAGUGG [Theophilline A V3 (+6G)] | 243 | 250 | 286 | 297 | 160
UUGUUUGGUUGAGAGGUUGGGCGAGAUGAUACCAGUAGAUAAGAAUACCCUUGGCAGCAUAAGAAAGAUAUAGUGAUGUUGUAUA [SSTheophA.N] | 566 | 386 | 553 | 525 | 478
GGGUCAGCGCGAAGGAGCGCCCUGACAGGUUGCUGCCGUGGGCAGUGAUGUUGCUCAGUCCGGCAGGUAGGUCGCGUGCUGACCC | 202 | 151 | 183 | 166 | 169
CCACAAUAUGGAAGGAGCGCCAGUGAUGUUGGUGCUUGCUUUAGGUAAGACCGGCCUAUUUGGCAGGUAGGUCGCCAUAUUCAAC [Ageat] | 103 | 89.5 | 97.7 | 89 | 97.2
AAUAUCUAGUAUAUUUUUAAUAAAACAGAUACCAGUGAUAAUAGACACCCUUGGCAGCUGGUCGAGUGAUGUUCGUUUAUAUUAA [JR_SSTheophyA_Sub006] | 85.5 | 83.6 | 104 | 176 | 57.3
GUAUGUGGAAACACGUACUUGUAUCCUAGGAAGGAUAUGCGGAAACGCAGAAGGUCCACCGGCGAGUUUAUCCAGUGAUGUUGGA [Ex FMN A 10] | 260 | 275 | 274 | 318 | 248
UGUGUUGUUUUGAUGUUUGGUGUUGCAUGGCAGGAUAUCGUAGAGGCGAGAAGGGCUUGUGAGCGGUAUGAGUGAUGUUUGUAGG [bbgbmullin] | 433 | 270 | 406 | 400 | 299
GCGCGGCACAGUGAUGUUGUGCCUCGGAGACGAGGACCGGUACGGCCGCCACUCGUCCGCGCAGCUGAGGCAAAAGCCUCGGCAA [Omei KL Tryp A SS B v4] | 382 | 393 | 473 | 447 | 128
UCCUGCAAUCAACCACGAAAGUGGUUCGAUACCAGAGUCGAAAGACUCCCUUGGCAGCGAGUGAUGUUCGAGCAGGUAAAAUAAA | 862 | 642 | 754 | 646 | 602
UGUGAUGUGUAGUGUUAUGUUUUGAGGGAUACCAGAGUGUUUUUAUUCCCUUGGCAGCUUGAGUGAUGUUUGAUGUUGUUGUUGU [knnumullin] | 303 | 166 | 232 | 213 | 187
GGUGACAACCAGAAGUGAUGUAUAGAAUAGCGAGGACCGGUACGGCCGCCACUCGUGAAGAGAAAGGAGUGAUGUUCCGUAAUGG [Kazoo C4] | 250 | 260 | 271 | 243 | 85.1
AGAGAUAUAUGAGGAUAUGGGUUUGUUAAUGAGUUAGUUUUAGUGUUGUUUGGUUAGUGAUGUUAUUUAGAAGGCGUGAGUGAUG [aatrmullin] | 94.2 | 62.3 | 61.4 | 78.4 | 62.2
GCAGUGAUGUUGCUGAUGUACAGUGGGAUACGAGGACCGGUACGGCCGCCACUCGUACAGAACUUGUUAAUACAUCGAUAGGUGA [XIII] | 702 | 759 | 880 | 837 | 564
UUUAUUAAGACGGCCGCCACUGAAUCAUAGUGAUGUUAUGAUAUAAUUUUAGUGAUUUUGAUUAGCAGGACCGGGUCAAUUAUUA [#26 K4 Tryptophan B Exclusion] | 165 | 133 | 144 | 139 | 140

Sequence | apparent KD of K4 kissing-loop reporter (input ligand: FMN 200 uM) [nM] | apparent KD of K4 kissing-loop reporter (input ligand: arginine 13.2 mM) [nM] | apparent KD of K4 kissing-loop reporter (input ligand: none) [nM] | apparent KD of K4 kissing-loop reporter [1] [nM] | apparent KD of K4 kissing-loop reporter [2] [nM]
GGCGGCUGCGCGGAAGCGCAGCCGGCCGAUACCAGCGCGACGGCGCGCCCUUGGCAGCGGCGCCGAGUGAUGUUCGGCCUGCCGU [#2 Same State - Theophylline A Attempt #21 (HarryS)] | 122 | 82.2 | 95.3 | 124 | 117
GGAAGGAAGGAAACCAACCAACCAACCGAUACCAGCGGAAGAGAACGCCCUUGGCAGCGGAGAAAGCCAGUGAUGUUGGAAAGAA | 324 | 224 | 402 | 300 | 318
GUACGCUCUCGAGUGAUGUUCGGUAAUAGUUAGGAUAUCGCUUUUGCGAGAAGGAACUGAAUGAGGAAACUCGUUCUGAGUGUAC [FMN A 18] | 618 | 183 | 342 | 398 | 239
AAACAUUGGUGCGAUACCAGCUGAUCGGAAACGAUCAUGCUGGAGUGAUGUUCCAGGAAAAGCCCUUGGCAGCGCACCGAUGAAA [MAT - Same State Theophlline B - Mod of Eli - D29] | 128 | 79.8 | 78.5 | 275 | 95.9
GGUAGCAUGGCGGCCGCCACUGAGGCCCUAUGCGAGUCCUCUACAACCUAGUGAUGUUAGGCGUCCAGGACCGGGCCAUGCUACC | 95.7 | 44.1 | 71.2 | 58.4 | 93
UGACUGGAUGGAAGGAGCGCUAAACUCCUAGUGAUGUUAGGGACAUGAGGCACAGCCUUGAAGCAGGUAGGUCGCCAUCUAGUCU [FiskerMod 28 - Jieux - Same State - Arginine B] | 197 | 135 | 176 | 166 | 174
AAUGCAUAGUGAAGGAGCGCGAUUUGCAGUGAUGUUGCAAAUUUAAACAAUCUUAUCUUUUCGCAGGUAGGUCGCACUAUGCAUA [JR_Nu_SSArginiB_Sub021] | 94.1 | 90.3 | 88.2 | 80.9 | 88.7
GGAUGCAUUUUGGAUACCAGUCUAGUGAUGUUAGACUGAUAAUAACGGGCAGCGUUGGCAGACCCUUGGCAGCCAAAAUACUUAA [theeternabot_exclusion_KL_Theo_B_33] | 62.2 | 64.6 | 54.8 | 63.9 | 58.9
UGGAUAUAGUGAUGUUAUAUAGAGAGUGAUACCAGUUUAGAGAAGAACCCUUGGCAGCAUAAAGAAGUAUCAUUAGAGAAGAAUG [ExTheophyl.Ao] | 229 | 216 | 282 | 224 | 176
AUUUGUUUAUGUGAUACCAGACUAAGCAGUGAUGUUGCUUUUAUUUUUGAAUUUUAAAUAGUCCCUUGGCAGCACUAUGUCUGUA [#05 K4 Theophylline B Same State] | 96.4 | 147 | 135 | 161 | 94.2
UUUUUCGCGUUUGAUACCAGCAGAGUUGUUCUUGUCUGGAACAUGAGUGAUGUUCAUGUCUGCCCUUGGCAGCAAACGGGAGAAG [KL-XTheo-B12] | 122 | 111 | 110 | 114 | 116
AAGCAGUCACCCGAAGCCAUCGAAGAUGGACGAGGACCGGUACGGCCGCCACUCGGAGUGAUGUUCCGAAGACUGCAAAAUAAAA | 269 | 272 | 302 | 304 | 412
GUGCGGCUAGUGAUGUUGGUUGCGUGGGAAGGAGCGCAGAAACAUGCAGGUAGGUCGCCCACACCUCUGAAAGGAGGCUAAUUCA [Bisobi] | 277 | 128 | 163 | 213 | 134
UACUAUAGUGAUGUUAUAGAUAAACCAGAUACCAGUGUAACAUAACACCCUUGGCAGCUGAUGAGGGAACAUAUGAAUGCAUAUG [AstrosSSTHe-A#5newdesignED5.11] | 196 | 166 | 179 | 178 | 163
GUCCACACUGCAGGAUAUGGAGAAAUAGCGAGGGAGCUUGGAAGCACGCCUCUGGCAGUGAUGUUGCCAGAAGGGCGGUGCGGCG [Dilazasole] | 106 | 76.9 | 75.2 | 76.9 | 80.8
GGUGACGGCCAGGAGUGAUGUAUAGAAUAGCGAGGACCGGUACGGCCGCCACUCGUGAAGAAAAGGGAGUGAUGUUCCGUAAUGG [Kazoo B] | 380 | 284 | 450 | 229 | 302
UUUUUUUACUGAAGGAGCGGCAAUUGAUACGUAGAUAUAGUGAUGUUAUAUAAGAUAGAGAGCCAGGUAGGUCGCAGAUUUUUUC [ExArgB.X] | 194 | 160 | 172 | 143 | 129
CAUACGCAUGGAGGAUAUGAGAAUUCUCAUGUCAUUUAAUAUUCUCAGUGAUGUUGAGGAUGUGGCUCAGAAGGCCAUGUGUAUG [Ex FMN B 21] | 205 | 325 | 423 | 366 | 379
CUUAAGAUAUGAGUGAUGUUCAUGUCCGAAGGAGCGUGCGAAAGCACAGGUAGGUCGCGGAUGUGAGUGAUGUUCAUGUAAGCGA [KL-XArg-A12 #analogue] | 172 | 105 | 119 | 135 | 153
GCUAUGGUAGGAAGGAGCGCUUGCUCGGUCAUAAGAGUGAUGUUCGAGACCGAGCAUUUAUAGCAGGUAGGUCGCCUACUAUAGC [Arginine B K4 7] | 310 | 194 | 200 | 256 | 250
ACAAAAGUGAUGUUUUUGAACGUGCGCGAUACCAGAAAUGUCUUCUUCCCUUGGCAGCGCUAUUACUUGUAAGAAAGUACGUUUC [theeternabot_sameState_KL_Theo_A_17] | 969 | 528 | 870 | 774 | 490
AGCGCUGCCUGAGGAUAUAGAAACGAGUGAUGUUCGUGGAUUGAUACCAGUGAUGUUGGCCUAUUUCUAGAAGGCAGGCGAUCGU [Exclusion FMN B GF2] | 172 | 97.1 | 136 | 88.2 | 114

— the supplement of paper PMC9170038
